Biological target: VgrS (residues 81-729), Salmonella Typhimurium VgrG (Salmonella enterica serovar Typhimurium)
Assay: crystal structure

Substance “VgrS (residues 81-729), Salmonella Typhimurium VgrG (domain or fragment)” has a stoichiometry N of 3.
